Data: PMC3718817 (2013)

B1: Gal4AD-Sds22 [S. cerevisiae] / Gal4(1-147)-Glc7 [S. cerevisiae] (parent complex)
chain 1: MDKNSVNKDSEEKDERHKIEVVDDTNPDFITADSELTQDLPDDVEVIDLVHLKIKSLEDLNLYRFKNLKQLCLRQNLIESISEVEVLPHDKIVDLDFYDNKIKHISSNVNKLTKLTSLDLSFNKIKHIKNLENLTDLENLYFVQNSISKIENLSTLKSLKNLELGGNKVHSIEPDSFEGLSNLEEIWLGKNSIPRLINLHPLKNLKILSIQSNKLKKIENLEELTNLEELYLSHNFITKIEGLEKNLKLTTLDVTSNKITSLENLNHLSNLTDIWASFNKIDQSFESLGENLSALSRLETIYLEGNPIQLENKTSYRRKLTMNLPPSLQKIDATYIRG
chain 2: MDSQPVDVDNIIDRLLEVRGSKPGQQVDLEENEIRYLCSKARSIFIKQPILLELEAPIKICGDIHGQYYDLLRLFEYGGFPPESNYLFLGDYVDRGKQSLETICLLLAYKIKYPENFFILRGNHECASINRIYGFYDECKRRYNIKLWKTFTDCFNCLPIAAIIDEKIFCMHGGLSPDLNSMEQIRRVMRPTDIPDVGLLCDLLWSDPDKDIVGWSENDRGVSFTFGPDVVNRFLQKQDMELICRAHQVVEDGYEFFSKRQLVTLFSAPNYCGEFDNAGAMMSVDESLLCSFQILKPAQKSLPRQAGGRKKK

Variants of: B1
Experiment: two-hybrid assay (β-galactosidase activity); three independent PJ69-4A transformants; parent: 23; read off a plot

Row | response | Variant
1 | ~19 | chain 1 D273A
2 | ~6 | chain 1 E79G, chain 1 L159Q, chain 1 L295I
3 | ~11 | chain 1 D119A
4 | ~13 | chain 1 F65L, chain 1 Y141H, chain 1 I210T
5 | ~11 | chain 1 W275A
